Residue numbers refer to the chain shown, from its start. Like-named read-outs stand apart in the source and are kept apart here. Values belong to the binder of their own block, whether it stands above or below them.
Tests used:
[1] = target: T1, human B7-H4 expressed on cells (human, UniProt Q7Z7D3 25-282); experiment: flow cytometry, SK-BR-3 cells
T1 construct: Transfected CHO cells or tumor cell lines that carry hB7-H4; also called cellular hB7-H4
T1 sequence: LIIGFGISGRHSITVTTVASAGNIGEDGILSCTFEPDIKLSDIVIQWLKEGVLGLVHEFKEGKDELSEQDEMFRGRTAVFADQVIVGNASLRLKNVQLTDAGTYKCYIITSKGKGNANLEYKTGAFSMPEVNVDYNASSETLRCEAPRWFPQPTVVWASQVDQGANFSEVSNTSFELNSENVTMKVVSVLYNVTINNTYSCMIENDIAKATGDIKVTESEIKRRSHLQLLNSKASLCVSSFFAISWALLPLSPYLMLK
Summary of the method: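 Cells at 1×10⁶ cells/ml in ice-cold FACS buffer incubated with serially diluted antibodies or fusion proteins for 1 h at 4 °C. After three washes, secondary antibody (1:200) applied 30 min at 4 °C in the dark; binding read by flow cytometry.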

[2] = target: T2, hB7-H4 (soluble human B7-H4, construct not named) (human, UniProt Q7Z7D3 25-259, limits assumed); experiment: SPR (Biacore)
T2 construct: also called soluble hB7-H4
T2 sequence: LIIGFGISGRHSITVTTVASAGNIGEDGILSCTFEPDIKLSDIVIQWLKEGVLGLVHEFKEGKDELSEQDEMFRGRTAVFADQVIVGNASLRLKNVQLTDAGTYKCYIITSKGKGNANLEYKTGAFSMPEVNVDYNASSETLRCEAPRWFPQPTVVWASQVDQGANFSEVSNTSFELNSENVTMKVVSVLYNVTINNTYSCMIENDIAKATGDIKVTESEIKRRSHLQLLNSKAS
Summary of the method: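 Ligands (human B7-H4-Fc, human B7-H4-his, mouse B7-H4-Fc) were amine-coupled to CM5 chips at 50-100 RU. Analyte was injected at 100 nM to 0.1 nM in HBS-EP, pH 7.4, at 25 °C, with 180 s association and 1000 or 1200 s dissociation. Kinetics were fitted to a 1:1 Langmuir model.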

[3] = target: T3, mouse B7-H4 expressed on cells (mouse, UniProt Q7TSP5 25-257); experiment: flow cytometry, CHO cells expressing mB7-H4
T3 construct: also called cellular mB7-H4; mB7-H4/CT26
T3 sequence: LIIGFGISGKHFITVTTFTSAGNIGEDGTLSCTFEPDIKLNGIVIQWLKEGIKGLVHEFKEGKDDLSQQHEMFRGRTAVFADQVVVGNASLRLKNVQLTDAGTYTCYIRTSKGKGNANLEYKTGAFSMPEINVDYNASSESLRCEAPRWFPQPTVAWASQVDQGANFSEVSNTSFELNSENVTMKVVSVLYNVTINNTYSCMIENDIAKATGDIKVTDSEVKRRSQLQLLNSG
Description: (§1) ELISA experiments were performed to determine binding to hB7-H4-Fc (FIG. 3A), hB7-H4-his (FIG. 3B), mB7-H4-Fc (FIG. 3C), and hB7-H4 IgV domain (FIG. 3D). Flow cytometry experiments were performed to determine binding to CHO cells expressing hB7-H4 (FIG. 3E) or mB7-H4 (FIG. 3F).
Cells were harvested, washed once, and then re-suspended to the concentration of 1×10⁶ cells/ml in ice cold FACS Buffer. 25 μl of cell suspension was added to each well of a 96-well round-bottom microliter plate. Serially diluted antibodies or fusion proteins were added to each well and incubated for 1 hour at 4° C. Cells were washed three times by centrifugation at 1500 rpm for 5 minutes, and then stained with secondary antibody (1:200 dilution) for 30 min at 4° C. in the dark. Cells were washed once, re-suspended in 100 μl PBS buffer and then analyzed using Guava Flow Cytometry EasyCyte system.

mouse B7-H4-Fc [4] = target: T4, mouse B7-H4-Fc (mouse; human); experiment: ELISA, coated mB7-H4-Fc
T4 construct: also called mB7-H4-Fc; mB7-H4-hFc
T4 sequence (chain, as listed by the source): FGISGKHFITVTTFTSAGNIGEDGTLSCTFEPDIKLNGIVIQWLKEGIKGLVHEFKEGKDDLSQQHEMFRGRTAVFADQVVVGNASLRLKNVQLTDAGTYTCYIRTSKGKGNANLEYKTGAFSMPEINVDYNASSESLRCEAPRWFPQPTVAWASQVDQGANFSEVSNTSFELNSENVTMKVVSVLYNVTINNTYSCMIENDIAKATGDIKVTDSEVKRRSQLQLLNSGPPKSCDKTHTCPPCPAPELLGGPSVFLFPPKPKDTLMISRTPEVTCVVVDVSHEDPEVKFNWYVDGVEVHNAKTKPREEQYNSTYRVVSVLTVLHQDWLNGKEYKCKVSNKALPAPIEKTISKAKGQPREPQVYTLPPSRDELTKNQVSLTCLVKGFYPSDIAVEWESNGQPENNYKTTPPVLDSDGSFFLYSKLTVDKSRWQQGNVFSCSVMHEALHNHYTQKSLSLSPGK
Description: as §1
(§2) About 1-2 μg/ml of human or mouse B7-H4-Fc (or his-tagged) was immobilized on ELISA plates (Immuno 2HB, Thermo scientific, cat #3455) at 4° C. overnight. After blocking the plates with 3% PBS+milk, serial diluted antibodies were added to the blocked plates and incubated at RT for 1-1.5 h. After washing the plates with PBS-T (0.05%), horse radish peroxidase (HRP)-conjugated antibody targeting the hFab was added to the plate. Signals were developed by adding 3,3′,5,5′-Tetramethylbenzidine (TMB (followed 1N of H₂SO₄ to stop the reaction. The OD at 450 nm was read by ELISA plate reader (Infinite M1000 from TECAN). GraphPad from Prism was used to plot OD450 vs. antibody concentration curve and to calculate the EC50 values.

human B7-H4-Fc [5] = target: T5, human B7-H4-Fc (human); experiment: ELISA, coated hB7-H4-Fc
T5 construct: also called hB7-H4-Fc; hB7-H4 Fc
T5 sequence (chain, as listed by the source): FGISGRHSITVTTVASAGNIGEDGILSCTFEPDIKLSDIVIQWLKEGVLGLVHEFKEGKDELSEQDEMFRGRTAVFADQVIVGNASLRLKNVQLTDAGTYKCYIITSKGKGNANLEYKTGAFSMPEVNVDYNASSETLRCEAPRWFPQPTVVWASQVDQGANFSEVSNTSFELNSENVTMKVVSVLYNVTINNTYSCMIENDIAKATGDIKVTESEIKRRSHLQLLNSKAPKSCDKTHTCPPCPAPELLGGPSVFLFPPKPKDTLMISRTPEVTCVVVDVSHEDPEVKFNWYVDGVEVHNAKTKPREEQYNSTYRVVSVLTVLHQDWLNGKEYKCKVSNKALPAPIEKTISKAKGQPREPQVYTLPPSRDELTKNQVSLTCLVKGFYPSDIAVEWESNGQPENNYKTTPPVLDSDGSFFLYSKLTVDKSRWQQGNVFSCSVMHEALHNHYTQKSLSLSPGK
Description: (§3) ELISA experiments were performed to determine binding to hB7-H4-Fc (FIG. 4A), hB7-H4-his (FIG. 4B), hB7-H4 IgV domain (FIG. 4C), and mB7-H4 IgV domain (FIG. 4D). Flow cytrometry experiments were performed to determine binding to CHO cells expressing hB7-H4 (FIG. 4E) or mB7-H4 (FIG. 4F). […] A cross-reactive IgV binding antibody was used as a control.
as §2

[6] = target: T2, hB7-H4 (soluble human B7-H4, construct …); experiment: ELISA, hB7-H4
Summary of the method: (§4)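 Each antibody, diluted in series, was incubated 1-1.5 h at RT on milk-blocked wells coated with ~1-2 μg/ml human or mouse B7-H4-Fc (or his-tagged) at 4° C overnight. An HRP anti-human Fab with TMB gave the OD450 signal.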

[7] = target: T6, mB7-H4 (soluble mouse B7-H4, construct not named) (mouse, UniProt Q7TSP5 25-257, limits assumed); experiment: summary of ELISA and flow cytometry
T6 sequence: T3 sequence

[8] = target: T7, IgC domain of mouse B7-H4-Fc (mouse; human); experiment: ELISA, coated mB7-H4 IgC domain (title on the sheet: IgC domain of mB7H4)
T7 construct: also called mB7-H4 IgC domain
T7 sequence (chain, as listed by the source): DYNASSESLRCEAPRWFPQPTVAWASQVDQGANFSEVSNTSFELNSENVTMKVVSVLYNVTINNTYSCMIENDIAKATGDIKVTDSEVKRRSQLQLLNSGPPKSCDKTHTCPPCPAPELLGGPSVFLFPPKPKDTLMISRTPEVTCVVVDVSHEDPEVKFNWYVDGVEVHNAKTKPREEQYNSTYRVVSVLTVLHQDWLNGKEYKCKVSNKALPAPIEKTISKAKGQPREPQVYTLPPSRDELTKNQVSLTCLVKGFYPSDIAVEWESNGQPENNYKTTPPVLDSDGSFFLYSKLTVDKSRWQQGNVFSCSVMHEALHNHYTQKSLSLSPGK
Description: as §2

[9] = target: T8, IgV domain of human B7-H4-Fc (human); experiment: ELISA, coated hB7-H4 IgV domain
T8 construct: also called hB7-H4 IgV domain
T8 sequence (chain, as listed by the source): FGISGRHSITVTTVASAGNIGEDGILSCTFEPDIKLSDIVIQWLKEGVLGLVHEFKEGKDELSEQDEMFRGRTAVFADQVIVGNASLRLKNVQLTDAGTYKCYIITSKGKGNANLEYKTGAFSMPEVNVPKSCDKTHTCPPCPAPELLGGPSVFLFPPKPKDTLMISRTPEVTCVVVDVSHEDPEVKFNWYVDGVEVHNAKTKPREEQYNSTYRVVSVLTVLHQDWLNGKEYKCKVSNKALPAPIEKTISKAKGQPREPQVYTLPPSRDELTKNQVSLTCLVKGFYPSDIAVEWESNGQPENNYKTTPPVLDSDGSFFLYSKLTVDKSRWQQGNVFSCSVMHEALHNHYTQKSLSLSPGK
Description: as §3, §2

[10] = target: T9, IgV domain of mouse B7-H4-Fc (mouse; human); experiment: ELISA, coated mB7-H4 IgV domain
T9 construct: also called mB7-H4 IgV domain
T9 sequence (chain, as listed by the source): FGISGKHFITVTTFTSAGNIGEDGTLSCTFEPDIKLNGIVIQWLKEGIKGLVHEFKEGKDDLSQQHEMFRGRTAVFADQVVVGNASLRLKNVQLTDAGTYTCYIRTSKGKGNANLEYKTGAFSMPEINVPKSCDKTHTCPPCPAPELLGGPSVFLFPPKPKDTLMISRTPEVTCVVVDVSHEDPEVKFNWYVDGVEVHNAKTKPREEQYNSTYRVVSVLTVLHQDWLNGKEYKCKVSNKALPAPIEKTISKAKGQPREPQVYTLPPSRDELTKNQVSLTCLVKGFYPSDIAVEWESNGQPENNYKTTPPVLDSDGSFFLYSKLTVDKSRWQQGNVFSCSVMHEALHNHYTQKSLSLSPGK
Description: as §3, §2

human B7-H4-his = target: T10, human B7-H4-his (human, UniProt Q7Z7D3 25-259); experiment: SPR (Biacore)
T10 construct: also called hB7-H4-his; hB7-H4 his; not shown: his tag
T10 sequence: T2 sequence

human B7-H4-Fc [11] = target: T5, human B7-H4-Fc; experiment: SPR (Biacore)
mouse B7-H4-his = target: T11, mouse B7-H4-his (mouse, UniProt Q7TSP5 25-257); experiment: ELISA, coated mB7-H4-his
T11 construct: also called mB7-H4-his; mB7-H4-His; not shown: his tag
T11 sequence: T3 sequence
Description: as §2

[12] = target: T6, mB7-H4 (soluble mouse B7-H4, construct …); experiment: ELISA and SPR (Biacore)
Description: as §2
Surface plasmon resonance experiments were performed using a Biacore T200 instrument equipped with CM5 sensor chips. The system was equilibrated in running buffer HBS-EP pH 7.4. The ligands were immobilized using amine-coupling chemistry. The surfaces of flow cells one through four were activated for 5 min using an amine coupling kit at a flow rate of […]. The ligands (human B7-H4-Fc, human B7-H4-hism and mouse B7-H4-Fc; at a concentration of 5 μg/ml in 10 mM sodium acetate, pH 5.0) were immobilized at a density of 50-100 RU on flow cell 2, 3, 4 respectively. Flow cell 1 was left blank to serve as a reference surface. All flow cell surfaces were blocked with a 5 min injection of 1 M ethanolamine, pH 8.0. To collect kinetic binding data, the respective analyte (diluted in 1×HBS-EP buffer, pH 7.4) was injected over the four flow cells at concentrations of 100 nM to 0.1 nM at a flow rate of […] and at a temperature of 25° C. The protein complex was allowed to associate and dissociate for 180 seconds and 1000 or 1200 seconds, respectively. The surfaces were regenerated with a 30 second injection of 1.5 M NaCl/0.05 M NaOH. The data were fit to a simple 1:1 interaction model using the Langmuir fit option available within the Biaevaluaton software

mouse B7-H4-Fc [13] = target: T4, mouse B7-H4-Fc; experiment: ELISA, coated mB7-H4-Fc (title on the sheet: Binding to mB7-H7-Fc)
Description: as §2

[14] = target: T12, IgC domain of human B7-H4-Fc (human); experiment: ELISA, coated hB7-H4 IgC domain (title on the sheet: IgC domain of hB7H4)
T12 construct: also called hB7-H4 IgC domain
T12 sequence (chain, as listed by the source): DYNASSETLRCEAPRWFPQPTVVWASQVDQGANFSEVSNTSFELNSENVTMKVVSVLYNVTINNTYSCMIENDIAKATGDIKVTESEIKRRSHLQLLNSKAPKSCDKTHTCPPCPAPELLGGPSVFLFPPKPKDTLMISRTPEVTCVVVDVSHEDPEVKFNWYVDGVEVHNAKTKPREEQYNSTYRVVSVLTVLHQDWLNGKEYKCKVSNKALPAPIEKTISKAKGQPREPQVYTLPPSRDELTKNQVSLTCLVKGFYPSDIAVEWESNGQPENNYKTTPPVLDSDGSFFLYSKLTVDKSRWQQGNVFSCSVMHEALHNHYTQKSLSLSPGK
Description: as §2

[15] = target: T3, mouse B7-H4 expressed on cells; experiment: flow cytometry, CHO cells expressing mB7-H4; remark: listed apart in the source
[16] = target: T9, IgV domain of mouse B7-H4-Fc; experiment: ELISA, coated mB7-H4 IgV domain; remark: listed apart in the source
Summary of the method: as §4

EC50 [1]: 18.6 nM | Kd [2]: 0.775 nM | EC50 (read off the curve) (human B7-H4-Fc [5]): ~7 ng/mL | EC50 [6]: 0.044 nM | binding result [7]: no binding | EC50 (read off the curve) [9]: ~10 ng/mL | binding result [10]: no binding | Kd (human B7-H4-his): 0.551 nM | Kd (human B7-H4-Fc [11]): 0.805 nM
B1: 1D3/1D3 (antibody, human IgG1, V domains shown)
VH: EVQLLESGGGLVQPGGSLRLSCAASGFTFNTHAMHWVRQAPGKGLEWVSAISGSGGSTYYADSVKGRFTISRDISKNTLYLQMNSLRAEDTAVYYCARLLGRFGEYGMDVWGQGTTVTVSS
VL: DIQMTQSPSSLSASVGDRVTITCRASRSIYTWLAWYQQKPGKAPKLLIYDASTLQSGVPSRFSGSGSGTDFTLTISSLQPEDFATYYCQQSYSTPYTFGGGTKVEIK
binding result [3]: no binding (tested: axis value -7 (log scale labelled nM)) | binding result (mouse B7-H4-Fc [4]): no binding (tested: axis value -8 (log scale labelled nM)) | binding result [8]: no binding (tested: axis value -8 (labelled log nM)) | binding result (mouse B7-H4-his): no binding (tested: axis value -8 (labelled log nM))

EC50 [1]: 36 nM | Kd [2]: 0.209 nM | binding result [12]: no binding | binding result [15]: no binding (tested: log 2 nM (100 nM)) | EC50 [6]: 0.078 nM
B2: 1D3/47B2 (antibody, human IgG1, V domains shown)
VH: B1 VH
VL: B1 VL with R27Q, S28T, I29V, S52T, T53N, Q55A, S56T, P95S, Y96W
notes: 1D3 VH with 47B2 VL
binding result (mouse B7-H4-Fc [13]): no binding (tested: axis value -8 (log scale labelled nM)) | binding result [14]: no binding (tested: axis value -8 (labelled log nM)) | binding result [16]: no binding (tested: axis value -8 (labelled log nM)) | binding result [8]: no binding (tested: axis value -8 (labelled log nM)) | binding result (mouse B7-H4-his): no binding (tested: axis value -8 (labelled log nM))
